Data published in US20260049138A1 (Chugai, published 2026).
Positions count from the first letter of the chain named. Names and notes keep the numbering of the source.

B1: CE115HA000 G98Q one-arm antibody (antibody, human IgG1, kappa, L234A L235A, N297A, name in Kabat numbering)
heavy: QVQLVESGGGVVQPGRSLRLSCAASGFTFSNAWMHWVRQAPGKGLEWVAQIKAKSNNYATYYAESVKGRFTISRDDSKNSLYLQMNSLKTEDTAVYYCRYVHYQAYYGVDAWGQGTTVTVSSASTKGPSVFPLAPSSKSTSGGTAALGCLVKDYFPEPVTVSWNSGALTSGVHTFPAVLQSSGLYSLSSVVTVPSSSLGTQTYICNVNHKPSNTKVDKKVEPKSCDKTHTCPPCPAPEAAGGPSVFLFPPKPKDTLMISRTPEVTCVVVDVSHEDPEVKFNWYVDGVEVHNAKTKPREEQYASTYRVVSVLTVLHQDWLNGKEYKCKVSNKALPAPIEKTISKAKGQPREPQVYTLPPSRCELTKNQVSLSCAVKGFYPSDIAVEWESNGQPENNYKTTPPVLDSDGSFFLVSKLTVDKSRWQQGNVFSCSVMHEALHNHYTQKSLSLSPDYKDDDDK
chain: EPKSSDKTHTCPPCPAPELLGGPSVFLFPPKPKDTLMISRTPEVTCVVVDVSHEDPEVKFNWYVDGVEVHNAKTKPREEQYNSTYRVVSVLTVLHQDWLNGKEYKCKVSNKALPAPIEKTISKAKGQPREPQVCTLPPSRDELTKNQVSLWCLVKGFYPSDIAVEWESNGQPENNYKTTPPVLDSDGSFFLYSKLTVDKSRWQQGNVFSCSVMHEALHNRYTQKSLSLSP
light: DIVMTQSPLSLPVTPGEPASISCRSSQSLVHSNRNTYLHWYQQKPGQAPRLLIYKVSNRFSGVPDRFSGSGSGTDFTLKISRVEAEDVGVYYCGQGTQVPYTFGQGTKLEIKRTVAAPSVFIFPPSDEQLKSGTASVVCLLNNFYPREAKVQWKVDNALQSGNSQESVTEQDSKDSTYSLSSTLTLSKADYEKHKVYACEVTHQGLSSPVTKSFNRGEC
B2: CE115HA000 H96K one-arm antibody (antibody, human IgG1, kappa, L234A L235A, N297A, name in Kabat numbering)
heavy: B1 heavy with H102K, Q104G
chain: B1 chain
light: B1 light
B3: CE115HA000 H35S one-arm antibody (antibody, human IgG1, kappa, L234A L235A, N297A, name in Kabat numbering)
heavy: B1 heavy with H35S, Q104G
chain: B1 chain
light: B1 light
B4: CE115HA000 H35Q one-arm antibody (antibody, human IgG1, kappa, L234A L235A, N297A, name in Kabat numbering)
heavy: B1 heavy with H35Q, Q104G
chain: B1 chain
light: B1 light
B5: CE115HA000 G98R one-arm antibody (antibody, human IgG1, kappa, L234A L235A, N297A, name in Kabat numbering)
heavy: B1 heavy with Q104R
chain: B1 chain
light: B1 light
B6: CE115HA000 G100bS one-arm antibody (antibody, human IgG1, kappa, L234A L235A, N297A, name in Kabat numbering)
heavy: B1 heavy with Q104G, G108S
chain: B1 chain
light: B1 light
B7: CE115HA000 H96L one-arm antibody (antibody, human IgG1, kappa, L234A L235A, N297A, name in Kabat numbering)
heavy: B1 heavy with H102L, Q104G
chain: B1 chain
light: B1 light
B8: CE115HA000 G100bL one-arm antibody (antibody, human IgG1, kappa, L234A L235A, N297A, name in Kabat numbering)
heavy: B1 heavy with Q104G, G108L
chain: B1 chain
light: B1 light
B9: CE115HA000 H35F one-arm antibody (antibody, human IgG1, kappa, L234A L235A, N297A, name in Kabat numbering)
heavy: B1 heavy with H35F, Q104G
chain: B1 chain
light: B1 light
B10: CE115HA000 H35M one-arm antibody (antibody, human IgG1, kappa, L234A L235A, N297A, name in Kabat numbering)
heavy: B1 heavy with H35M, Q104G
chain: B1 chain
light: B1 light
B11: CE115HA000 G100bD one-arm antibody (antibody, human IgG1, kappa, L234A L235A, N297A, name in Kabat numbering)
heavy: B1 heavy with Q104G, G108D
chain: B1 chain
light: B1 light
B12: CE115HA000 G100bY one-arm antibody (antibody, human IgG1, kappa, L234A L235A, N297A, name in Kabat numbering)
heavy: B1 heavy with Q104G, G108Y
chain: B1 chain
light: B1 light
B13: CE115HA000 H35I one-arm antibody (antibody, human IgG1, kappa, L234A L235A, N297A, name in Kabat numbering)
heavy: B1 heavy with H35I, Q104G
chain: B1 chain
light: B1 light
B14: CE115HA000 H96P one-arm antibody (antibody, human IgG1, kappa, L234A L235A, N297A, name in Kabat numbering)
heavy: B1 heavy with H102P, Q104G
chain: B1 chain
light: B1 light
B15: CE115HA000 H35D one-arm antibody (antibody, human IgG1, kappa, L234A L235A, N297A, name in Kabat numbering)
heavy: B1 heavy with H35D, Q104G
chain: B1 chain
light: B1 light
B16: CE115HA000 G98Y one-arm antibody (antibody, human IgG1, kappa, L234A L235A, N297A, name in Kabat numbering)
heavy: B1 heavy with Q104Y
chain: B1 chain
light: B1 light
B17: CE115HA000 G98S one-arm antibody (antibody, human IgG1, kappa, L234A L235A, N297A, name in Kabat numbering)
heavy: B1 heavy with Q104S
chain: B1 chain
light: B1 light
B18: CE115HA000 H35K one-arm antibody (antibody, human IgG1, kappa, L234A L235A, N297A, name in Kabat numbering)
heavy: B1 heavy with H35K, Q104G
chain: B1 chain
light: B1 light
B19: CE115HA000 H35G one-arm antibody (antibody, human IgG1, kappa, L234A L235A, N297A, name in Kabat numbering)
heavy: B1 heavy with H35G, Q104G
chain: B1 chain
light: B1 light
B20: CE115HA000 H35L one-arm antibody (antibody, human IgG1, kappa, L234A L235A, N297A, name in Kabat numbering)
heavy: B1 heavy with H35L, Q104G
chain: B1 chain
light: B1 light
B21: CE115HA000 H96G one-arm antibody (antibody, human IgG1, kappa, L234A L235A, N297A, name in Kabat numbering)
heavy: B1 heavy with H102G, Q104G
chain: B1 chain
light: B1 light
B22: CE115HA000 G98T one-arm antibody (antibody, human IgG1, kappa, L234A L235A, N297A, name in Kabat numbering)
heavy: B1 heavy with Q104T
chain: B1 chain
light: B1 light
B23: CE115HA000 H35E one-arm antibody (antibody, human IgG1, kappa, L234A L235A, N297A, name in Kabat numbering)
heavy: B1 heavy with H35E, Q104G
chain: B1 chain
light: B1 light
B24: CE115HA000 H35T one-arm antibody (antibody, human IgG1, kappa, L234A L235A, N297A, name in Kabat numbering)
heavy: B1 heavy with H35T, Q104G
chain: B1 chain
light: B1 light
B25: CE115HA000 H35W one-arm antibody (antibody, human IgG1, kappa, L234A L235A, N297A, name in Kabat numbering)
heavy: B1 heavy with H35W, Q104G
chain: B1 chain
light: B1 light
B26: CE115HA000 G100bE one-arm antibody (antibody, human IgG1, kappa, L234A L235A, N297A, name in Kabat numbering)
heavy: B1 heavy with Q104G, G108E
chain: B1 chain
light: B1 light
B27: CE115HA000 G100bF one-arm antibody (antibody, human IgG1, kappa, L234A L235A, N297A, name in Kabat numbering)
heavy: B1 heavy with Q104G, G108F
chain: B1 chain
light: B1 light
B28: CE115HA000 H35N one-arm antibody (antibody, human IgG1, kappa, L234A L235A, N297A, name in Kabat numbering)
heavy: B1 heavy with H35N, Q104G
chain: B1 chain
light: B1 light
B29: CE115HA000 H35R one-arm antibody (antibody, human IgG1, kappa, L234A L235A, N297A, name in Kabat numbering)
heavy: B1 heavy with H35R, Q104G
chain: B1 chain
light: B1 light
B30: CE115HA000 H35Y one-arm antibody (antibody, human IgG1, kappa, L234A L235A, N297A, name in Kabat numbering)
heavy: B1 heavy with H35Y, Q104G
chain: B1 chain
light: B1 light
B31: CE115HA000 H35V one-arm antibody (antibody, human IgG1, kappa, L234A L235A, N297A, name in Kabat numbering)
heavy: B1 heavy with H35V, Q104G
chain: B1 chain
light: B1 light

Molecular target: T1, CD3ε homodimer protein (human, UniProt P07766 23-126, limits assumed, sulfo-tag or biotin label in the ECL assays; amine-coupled to the chip in SPR)
T1 construct: also called human CD3ε homodimer protein; CD3 (CD3ε)
Assay: SPR Biacore T200; CD3ε homodimer on CM4 chip;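 further: Single-residue variant antibodies injected as analyte over CD3ε homodimer immobilized by amine coupling, run at 25 °C in HBS-EP+ buffer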

T1 sequence (P07766 23-126 limits assumed): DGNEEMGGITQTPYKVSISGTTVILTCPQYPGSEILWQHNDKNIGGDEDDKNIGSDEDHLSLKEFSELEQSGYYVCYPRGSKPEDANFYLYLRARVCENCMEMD

Point of comparison: B27, “ratio of amounts bound Z=Y/X (altered form / CE115HA000)” value 0.3. Against it:
- B1 — higher, 1.22
- B2 — higher, 0.35
- B3 — lower, 0.23
- B4 — lower, 0.13
- B5 — higher, 2.96
- B6 — higher, 0.52
- B7 — lower, 0.14
- B8 — lower, 0.27
- B9 — lower, 0.21
- B10 — lower, 0.29
- B11 — lower, 0.27
- B12 — lower, 0.23
- B13 — lower, 0.12
- B14 — lower, 0.12
- B15 — lower, 0.2
- B16 — higher, 2.22
- B17 — higher, 1.01
- B18 — lower, 0.15
- B19 — lower, 0.22
- B20 — lower, 0.11
- B21 — higher, 0.43
- B22 — higher, 1.05
- B23 — lower, 0.19
- B24 — lower, 0.26
- B25 — lower, 0.22
- B26 — lower, 0.26
- B28 — higher, 0.35
- B29 — lower, 0.14
- B30 — lower, 0.16
- B31 — lower, 0.22
